Numbering of substitutions follows the chain as printed.
Experiments:
Nuclease S D179R = biological target: T1, Nuclease S D179R (synthetic construct, D179R); experiment: cell_activity; HEK293T; PAM AACC; settings: tags: N-term SV40 NLS, XTEN linker + C-term nucleoplasmin NLS
T1 chain: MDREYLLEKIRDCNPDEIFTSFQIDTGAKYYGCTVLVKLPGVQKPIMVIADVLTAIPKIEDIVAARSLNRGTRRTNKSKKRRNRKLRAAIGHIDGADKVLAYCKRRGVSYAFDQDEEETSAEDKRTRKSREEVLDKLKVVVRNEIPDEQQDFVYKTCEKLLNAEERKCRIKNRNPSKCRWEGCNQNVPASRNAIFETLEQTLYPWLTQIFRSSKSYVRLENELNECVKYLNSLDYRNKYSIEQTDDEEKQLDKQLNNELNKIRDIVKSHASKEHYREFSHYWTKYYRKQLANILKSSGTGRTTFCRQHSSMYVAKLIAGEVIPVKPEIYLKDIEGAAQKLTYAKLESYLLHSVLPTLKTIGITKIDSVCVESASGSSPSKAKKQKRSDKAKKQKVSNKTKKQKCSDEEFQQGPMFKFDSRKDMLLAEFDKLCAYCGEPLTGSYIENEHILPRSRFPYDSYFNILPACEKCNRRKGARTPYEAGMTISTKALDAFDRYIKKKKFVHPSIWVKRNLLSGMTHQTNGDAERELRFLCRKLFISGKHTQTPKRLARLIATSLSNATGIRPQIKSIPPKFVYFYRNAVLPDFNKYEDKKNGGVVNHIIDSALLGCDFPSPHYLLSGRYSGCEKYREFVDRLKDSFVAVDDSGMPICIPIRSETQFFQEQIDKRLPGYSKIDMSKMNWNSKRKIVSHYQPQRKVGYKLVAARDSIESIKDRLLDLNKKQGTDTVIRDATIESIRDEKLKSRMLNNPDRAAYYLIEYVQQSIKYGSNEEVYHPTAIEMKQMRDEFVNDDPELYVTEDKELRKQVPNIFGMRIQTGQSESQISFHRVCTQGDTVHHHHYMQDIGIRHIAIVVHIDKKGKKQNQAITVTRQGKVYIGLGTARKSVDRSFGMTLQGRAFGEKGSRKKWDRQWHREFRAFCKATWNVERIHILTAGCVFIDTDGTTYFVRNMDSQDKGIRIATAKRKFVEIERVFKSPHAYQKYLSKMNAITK
Protocol: (§1) HEK293T cells were transfected with plasmids expressing the Nuclease S polypeptides and the gRNAs provided herein following the methods provided in Example 1 above. Gene editing efficiencies were determined by NGS following the methods also provided in Example 1. The NGS results were analyzed also following the methods provided in Example 1 above.
(§2) For each target, indel ratios, referring to the percentage of NGS reads comprising indels, were calculated for the reference and for each variant. The indel ratios used for fold change calculations were the average of two technical replicates. To then calculate fold change in indel ratios at a particular target, the indel ratio for each variant was divided by the indel ratio for the reference. […] Numbering is relative to the reference nuclease of SEQ ID NO: 49 (i.e., without an NLS). […] The average fold change in indel ratio for the D844R variant at all targets was 5.27 times that of the indel ratio for the reference at all targets.

Nuclease S D844R = biological target: T2, Nuclease S D844R (synthetic construct, D844R); experiment: cell_activity; HEK293T; PAM AACC; settings: tags: N-term SV40 NLS, XTEN linker + C-term nucleoplasmin NLS
T2 chain: T1 chain with R179D, D844R
Protocol: as §1, §2

B1: S AAVS1-T7 RNA guide ; AAVS1-T7 target (S) (ssRNA ; dsDNA)
RNA: GGCUAUAAUCCAUGCUGACCGUUGUAUUCGGAUGGGAGUAAAAGGUUGAGUACACCUGGAAACAAAACGACAUAAAGGUGUUCUCCCAUCUGUGUACAAAGAGCAGAUAUAUGAGUUGAUAAGUAAUAUGUUGCACGUAUGGACUUUGACAGUCUGUACCUCUGCGUGAAAGACAUAUUGCGUUAUUCAUAUAUCUGUGAGUCUGUUCUAAAUUUAAAGGUUUAGGGAA
DNA 1: GGCTATAATCCATGCTGACC
DNA 2: GGTCAGCATGGATTATAGCC
- fold change in indel ratio vs reference (Nuclease S D179R): 6.38 fold indel vs reference
- fold change in indel ratio vs reference (Nuclease S D844R): 6.37 fold indel vs reference
